Experimental data as given in patent publication EP1652858A1.
Like-named read-outs stand apart in the source and are kept apart here.

Legend:
HLA-A0201 (human) = experiment: competition vs labelled reference peptide
HLA-A2402 (human) = experiment: competition vs labelled reference peptide
HLA-B0702 (human) = experiment: competition vs labelled reference peptide
HLA-B*0702 (human) [1] = experiment: competition binding assay, purified HLA, labelled probe peptide
HLA-B*0702 (human) [2] = experiment: competition binding assay against a labelled reference peptide; Ki from IC50; details: remark: other sources report otherwise
HLA-A0101 (human) = experiment: competition vs labelled reference peptide
HLA-B0801 (human) [3] = experiment: competition binding assay with labelled reference peptide
HLA-B0801 (human) [4] = experiment: competition vs labelled reference peptide; details: remark: other sources report otherwise
HLA-Cw0702 (human) = experiment: competition binding assay with labelled reference peptide
HLA-B*3501 (human) = experiment: competition binding assay, purified HLA, labelled probe peptide
[5] = remark: other sources report otherwise

Binder: LVLNPSVAA (modifications not checked)
- Ki (HLA-A0201 (human)): 2880 nM

Binder: MALYDVVST (modifications not checked)
- Ki (HLA-A0201 (human)): 1140 nM

Binder: NIIMYAPTL (modifications not checked)
- Ki (HLA-A0201 (human)): 70 nM

Binder: NLPGCSFSI (modifications not checked)
- Ki (HLA-A2402 (human); [5]): 8 nM
- Ki (HLA-A0201 (human); [5]): 83 nM

Binder: PLLLLLLAL (modifications not checked)
- Ki (HLA-A0201 (human)): 6550 nM

Binder: QIVGGVYLL (modifications not checked)
- Ki (HLA-A0201 (human)): 228 nM

Binder: RLYIGGPLT (modifications not checked)
- Ki (HLA-A0201 (human)): 845 nM

Binder: SMVGNWAKV (modifications not checked)
- Ki (HLA-A0201 (human)): 158 nM

Binder: SVFTGLTHI (modifications not checked)
- Ki (HLA-A0201 (human); [5]): 101 nM

Binder: WLGNIIMYA (modifications not checked)
- Ki (HLA-A0201 (human); [5]): 33 nM

Binder: YIPLVGAPL (modifications not checked)
- Ki (HLA-A0201 (human); [5]): 337 nM

Binder: YLFNWAVRT (modifications not checked)
- Ki (HLA-A0201 (human)): 29 nM

Binder: YQATVCARA (modifications not checked)
- Ki (HLA-A0201 (human)): 20 nM

Binder: AVMGSSYGF (modifications not checked)
- Ki (HLA-A2402 (human); [5]): 10 nM

Binder: FWAKHMWNF (modifications not checked)
- Ki (HLA-A2402 (human)): 2 nM

Binder: GLGWAGWLL (modifications not checked)
- Ki (HLA-A2402 (human)): 68 nM

Binder: GLTHIDAHF (modifications not checked)
- Ki (HLA-A2402 (human)): 10 nM

Binder: LYGNEGLGW (modifications not checked)
- Ki (HLA-A2402 (human)): 5 nM

Binder: PAVPQTFQV (modifications not checked)
- Ki (HLA-A2402 (human)): 991 nM

Binder: PFYGKAIPI (modifications not checked)
- Ki (HLA-A2402 (human)): 4 nM

Binder: SWDQMWKCL (modifications not checked)
- Ki (HLA-A2402 (human); [5]): 670 nM

Binder: TLWARMILM (modifications not checked)
- Ki (HLA-A2402 (human)): 2640 nM

Binder: TWAQPGYPW (modifications not checked)
- Ki (HLA-A2402 (human)): 8 nM

Binder: TYSTYGKF (modifications not checked)
- Ki (HLA-A2402 (human)): 192 nM

Binder: VMGSSYGF (modifications not checked)
- Ki (HLA-A2402 (human); [5]): 33 nM

Binder: YYRGLDVSVI (modifications not checked)
- Ki (HLA-A2402 (human)): 437 nM

Binder: AAKLSALGL (modifications not checked)
- Ki (HLA-B0702 (human)): 277 nM
- IC50 (HLA-B*0702 (human) [1]): 277 nM

Binder: AARALAHGV (modifications not checked)
- Ki (HLA-B0702 (human)): 209 nM

Binder: ALAHGVRVL (modifications not checked)
- Ki (HLA-B0702 (human); [5]): 7950 nM
- Ki (HLA-A0201 (human); [5]): 674 nM

Binder: APLGGAARA (modifications not checked)
- Ki (HLA-B0702 (human)): 115 nM
- IC50 (HLA-B*0702 (human) [1]): 115 nM

Binder: APLGGAARAL (modifications not checked)
- Ki (HLA-B0702 (human); [5]): 1 nM
- IC50 (HLA-B*0702 (human) [1]; [5]): 0.8 nM
- Ki (HLA-B*0702 (human) [2]): 1 nM

Binder: APTGSGKST (modifications not checked)
- Ki (HLA-B0702 (human)): 370 nM
- IC50 (HLA-B*0702 (human) [1]): 370 nM

Binder: APTLWARMIL (modifications not checked)
- Ki (HLA-B0702 (human); [5]): 1 nM
- Ki (HLA-B*0702 (human) [2]): 1 nM

Binder: ATLGFGAYM (modifications not checked)
- Ki (HLA-B0702 (human)): 13000 nM

Binder: KPTLHGPTPL (modifications not checked)
- Ki (HLA-B0702 (human); [5]): 6 nM
- IC50 (HLA-B*0702 (human) [1]; [5]): 5.8 nM
- Ki (HLA-B*0702 (human) [2]): 6 nM

Binder: CYDAGCAWY (modifications not checked)
- Ki (HLA-A0101 (human); [5]): > 20000 nM

Binder: LPRRGPRL (modifications not checked)
- Ki (HLA-B0702 (human); [5]): 1 nM
- Ki (HLA-B0801 (human) [3]; [5]): 6 nM

Binder: LPRRGPRLGV (modifications not checked)
- Ki (HLA-B0702 (human); [5]): 3 nM
- Ki (HLA-B*0702 (human) [2]): 3 nM

Binder: QPRGRRQPI (modifications not checked)
- Ki (HLA-B0702 (human); [5]): 1 nM
- Ki (HLA-B0801 (human) [3]; [5]): 3 nM
- Ki (HLA-B*0702 (human) [2]): 1 nM

Binder: TPGERPSGM (modifications not checked)
- Ki (HLA-B0702 (human)): 199 nM
- IC50 (HLA-B*0702 (human) [1]): 199 nM

Binder: EARQAIRSL (modifications not checked)
- Ki (HLA-B0801 (human) [4]): 9 nM

Binder: IPLVGAPL (modifications not checked)
- Ki (HLA-B0801 (human) [4]): 20 nM
- IC50 (HLA-B*0702 (human) [1]): 25 nM

Binder: FTDNSSPPA (modifications not checked)
- Ki (HLA-A0101 (human)): 10 nM

Binder: RTKLKLTPI (modifications not checked)
- Ki (HLA-B0801 (human) [3]): 2 nM

Binder: TIMAKNEVF (modifications not checked)
- Ki (HLA-B0801 (human) [3]): 6 nM

Binder: FTEAMTRYS (modifications not checked)
- Ki (HLA-A0101 (human)): 6610 nM

Binder: YLKGSSGGPL (modifications not checked)
- Ki (HLA-B0801 (human) [3]): 10 nM

Binder: ARLIVFPDL (modifications not checked)
- Ki (HLA-Cw0702 (human)): 514 nM

Binder: TYSTYGKFL (modifications not checked)
- Ki (HLA-Cw0702 (human)): 1020 nM

Binder: VRVCEKMAL (modifications not checked)
- Ki (HLA-Cw0702 (human)): 377 nM

Binder: KSTKVPAAY (modifications not checked)
- Ki (HLA-A0101 (human); [5]): 950 nM

Binder: LADGGCSGGAY (modifications not checked)
- Ki (HLA-A0101 (human)): 60 nM

Binder: LPRRGPRLG (modifications not checked)
- IC50 (HLA-B*0702 (human) [1]): 124 nM

Binder: LTCGFADLM (modifications not checked)
- Ki (HLA-A0101 (human)): 3550 nM

Binder: LPAILSPGAL (modifications not checked)
- IC50 (HLA-B*3501 (human)): 550 nM

Binder: LVDILAGYGA (modifications not checked)
- Ki (HLA-A0101 (human)): 419 nM

Binder: MGSSYGFQY (modifications not checked)
- Ki (HLA-A0101 (human); [5]): 1020 nM

Binder: PAAYAAQGY (modifications not checked)
- Ki (HLA-A0101 (human)): 1610 nM

Binder: VIDTLTCGF (modifications not checked)
- Ki (HLA-A0101 (human)): 1130 nM

Binder: AQPGYPWPL (modifications not checked)
- Ki (HLA-A0201 (human)): 382 nM

Binder: CLVDYPYRL (modifications not checked)
- Ki (HLA-A0201 (human)): 437 nM

Binder: DLCGSVFLV (modifications not checked)
- Ki (HLA-A0201 (human); [5]): 789 nM

Binder: FIPVESMET (modifications not checked)
- Ki (HLA-A0201 (human)): 934 nM

Binder: FLLALLSCLT (modifications not checked)
- Ki (HLA-A0201 (human)): 132 nM

Binder: GMFDSSVLC (modifications not checked)
- Ki (HLA-A0201 (human)): 71 nM

Binder: IMACMSADL (modifications not checked)
- Ki (HLA-A0201 (human); [5]): 66 nM

Binder: IMAKNEVFCV (modifications not checked)
- Ki (HLA-A0201 (human); [5]): 199 nM

Binder: KVLVLNPSV (modifications not checked)
- Ki (HLA-A0201 (human)): 50 nM
